Test results reported in patent US20230133118A1, “COMPOSITIONS AND METHODS FOR TREATING CANCER” (Adagene AG, priority 2020, published 2023).
Where “and” joins values, the source holds several entries; their conditions need not be identical. Identical values can stand only once. Like-named read-outs stand apart in the source and are kept apart here.

Settings: for Any DLTs: first 2 cycles
[1] = G3, cols c1,3,5,7,9,11,13=0.03,0.1,0.3,1,3,5,10 mg/kg, c15 overall N=20
[2] = G4, cols c2,4,6,8,10,12,14=0.03,0.1,0.3,1,3,5,10 mg/kg, c16 overall N=20
[3] = G4, cols c2,4,6,8,10,12,14=0.03,0.1,0.3,1,3,5,10 mg/kg, last col overall N=20

Experimental: The phase 1a dose escalation study in US (ClinicalTrials.gov Identifier: NCT03707093) included accelerated titration (0.03, 0.1 and 0.3 mg/kg) and conventional dose escalation (1, 3, and 10 mg/kg). The phase 1a dose escalation study in China (ClinicalTrials.gov Identifier: NCT03802955) included accelerated titration (0.1 mg/kg) and conventional dose escalation (0.5, 1.5, 3, 5, and 10 mg/kg). […] Patients with advanced or metastatic solid tumors and/or non-Hodgkin lymphoma who were refractory or relapsed and exhausted all available therapies were enrolled and received treatment until disease progression, intolerable toxicity, withdrawal with consent, or for a maximum of 24 months.
Dose expansion studies were conducted for dose levels that were proven tolerable in Phase 1a and with evidence of clinical or biological activity. The dose levels studied in Phase 1 b were 3 mg/kg and 5 mg/kg.

ADG106: fully human agonistic anti-CD137 monoclonal IgG4 antibody; heavy chain SEQ ID NO: 10, light chain SEQ ID NO: 11
15: SAEs (all causes) (China update, in 11 patients)
5/35: Grade 3 AE fatigue (US update)
29%: AE fatigue, regardless of causality (US update, 35 patients)
14%: AE arthralgia, regardless of causality (US update, 35 patients) | AE dehydration, regardless of causality (US update, 35 patients) | AE peripheral edema, regardless of causality (US update, 35 patients) | AE vomiting, regardless of causality (US update, 35 patients)
35%: TEAE C-reactive protein increase (China update, 57 patients) | patients with G3 to 4 TEAEs (China update, 21 patients)
6 n (%): Any Drug Related TEAEs (3 mg/kg N=12)
4 n (%): >=G3 adverse events (3 mg/kg N=12) | Drug Related SAE (Overall N=40)
39%: TEAE proteinuria (China update, 57 patients)
1 (100) n (%): >=G3 adverse events (0.03 mg/kg N=1) | Any Drug Related TEAEs (0.03 mg/kg N=1) | Any TEAEs leading to Study Drug Dose Reduction or Interruption (0.03 mg/kg N=1) | >=G3 adverse events (0.3 mg/kg N=1) | Any Drug Related TEAEs (0.3 mg/kg N=1)
2 (39) n (%): >=G3 adverse events (5 mg/kg N=7)
17: SAEs (all causes) (US update, in 13 patients)
20%: AE decreased appetite, regardless of causality (US update, 35 patients)
10%: TEAE anemia, regardless of causality (most common TEAEs (≥10%)) | TEAE arthralgia, regardless of causality (most common TEAEs (≥10%)) | TEAE decreased appetite, regardless of causality (most common TEAEs (≥10%)) | TEAE dyspnea, regardless of causality (most common TEAEs (≥10%)) | TEAE respiratory failure, regardless of causality (most common TEAEs (≥10%))
89%: hemoglobin decrease, all grades (US update, 35 patients)
3 n (%): Any SAE (3 mg/kg N=12) | SAE leading to Drug discontinuation (Overall N=40) | Any DLTs (Overall N=40)
30%: TEAE asthenia (China update, 57 patients) | TEAE hypoalbuminaemia (China update, 57 patients) | TEAE hyponatraemia (China update, 57 patients)
2: DLTs observed (US update Nov. 30, 2020, 7 dose escalation cohorts 0.03-10 mg/kg Q3W)
less than 3 mg/kg: dose below which ≥G3 treatment related AEs were not observed (US and China trials)
there was no G4 drug-related TEAEs: G4 drug-related TEAEs (US update)
2 (29) n (%): Drug Related SAE (5 mg/kg N=7)
4 (80) n (%): >=G3 adverse events (10 mg/kg N=5) | Any Drug Related TEAEs (10 mg/kg N=5)
1/35: Grade 3 AE tumor pain (US update) | Grade 3 AE vomiting (US update) | Grade 3 drug-related TEAE AST increase (US update) | Grade 3 drug-related TEAE adrenal insufficiency (US update) | Grade 3 drug-related TEAE anemia (US update) | Grade 3 drug-related TEAE decreased appetite (US update) | Grade 3 drug-related TEAE dyspnea (US update) | Grade 3 drug-related TEAE influenza like symptoms (US update)
no drug related death: drug related death (up to 10 mg/kg)
7: SAEs related to the study treatment (China update)
safe and well tolerated: tolerability of flat Q3W IV dose of 300 mg and 400 mg (US trial)
1: DLT observed (China update Nov. 30, 2020, 18 dose escalation patients, Grade 4 neutrophil count decreased at 10 mg/kg)
1 (20) n (%): Any SAE (1.5 mg/kg N=5)
10 n (%): Any SAE (Overall N=40)
1 (25) n (%): Any SAE (1 mg/kg N=4) | Any TEAEs Leading to Study Drug Discontinuation (1 mg/kg N=4) | Any TEAEs with Outcome of Death (1 mg/kg N=4)
46%: TEAE anemia (China update, 57 patients)
1 n (%): Any TEAEs Leading to Study Drug Discontinuation (3 mg/kg N=12) | Any TEAEs with Outcome of Death (3 mg/kg N=12) | Any TEAEs leading to Study Drug Dose Reduction or Interruption (Overall N=40)
26 n (%): Any Drug Related TEAEs (Overall N=40)
2 (40) n (%): Any Drug Related TEAEs (1.5 mg/kg N=5) | Any SAE (10 mg/kg N=5) | Any TEAEs Leading to Study Drug Discontinuation (10 mg/kg N=5) | Drug Related SAE (10 mg/kg N=5) | SAE leading to Drug discontinuation (10 mg/kg N=5)
3 (43) n (%): Any SAE (5 mg/kg N=7)
3/35: G3 GGT increase (US update) | Grade 3 drug-related TEAE fatigue (US update)
11%: AE anemia, regardless of causality (US update, 35 patients) | AE dizziness, regardless of causality (US update, 35 patients) | AE dyspnea, regardless of causality (US update, 35 patients) | AE tumor pain, regardless of causality (US update, 35 patients)
2 n (%): Any TEAEs with Outcome of Death (Overall N=40)
26%: TEAE white blood cell count decrease (China update, 57 patients)
2/35: G3 ALP increase (US update) | Grade 3 AE anemia (US update) | Grade 3 AE decreased appetite (US update) | Grade 3 AE dyspnea (US update)
4 (100) n (%): Any Drug Related TEAEs (1 mg/kg N=4)
1 n (%) and 1 (14) n (%): Any DLTs (5 mg/kg N=7)
15 n (%): >=G3 adverse events (Overall N=40)
4: SAEs related to the study treatment (US update, in 3 patients)
1 (14) n (%): Any TEAEs Leading to Study Drug Discontinuation (5 mg/kg N=7) | SAE leading to Drug discontinuation (5 mg/kg N=7)
~500 mg: total dose at which DLT occurs (US and Chinese patients)
There was no G3 or G4 decreases: G3 or G4 decreases of leukocytes, platelets, and neutrophils (US update)
23%: TEAE cough (China update, 57 patients) | TEAE hypochloraemia (China update, 57 patients) | AE nausea, regardless of causality (US update, 35 patients) | ALT increased, all grade (US update, 35 patients)
43%: AST increased, all grades (US update, 35 patients)
2 (100) n (%): Any Drug Related TEAEs (0.1 mg/kg N=2)
around 10 mg/kg: dose at which DLT occurs, by body weight (US and Chinese patients)
6%: total bilirubin increased (US update, 35 patients)
0 n (%): Any SAE (0.03 mg/kg N=1) | Any TEAEs Leading to Study Drug Discontinuation (0.03 mg/kg N=1) | Any TEAEs with Outcome of Death (0.03 mg/kg N=1) | Drug Related SAE (0.03 mg/kg N=1) | SAE leading to Drug discontinuation (0.03 mg/kg N=1) | Any DLTs (0.03 mg/kg N=1) | >=G3 adverse events (0.1 mg/kg N=2) | Any SAE (0.1 mg/kg N=2) | Any TEAEs Leading to Study Drug Discontinuation (0.1 mg/kg N=2) | Any TEAEs leading to Study Drug Dose Reduction or Interruption (0.1 mg/kg N=2) | Any TEAEs with Outcome of Death (0.1 mg/kg N=2) | Drug Related SAE (0.1 mg/kg N=2) | SAE leading to Drug discontinuation (0.1 mg/kg N=2) | Any DLTs (0.1 mg/kg N=2) | Any SAE (0.3 mg/kg N=1) | Any TEAEs Leading to Study Drug Discontinuation (0.3 mg/kg N=1) | Any TEAEs leading to Study Drug Dose Reduction or Interruption (0.3 mg/kg N=1) | Any TEAEs with Outcome of Death (0.3 mg/kg N=1) | Drug Related SAE (0.3 mg/kg N=1) | SAE leading to Drug discontinuation (0.3 mg/kg N=1) | Any DLTs (0.3 mg/kg N=1) | >=G3 adverse events (0.5 mg/kg N=3) | Any SAE (0.5 mg/kg N=3) | Any TEAEs Leading to Study Drug Discontinuation (0.5 mg/kg N=3) | Any TEAEs leading to Study Drug Dose Reduction or Interruption (0.5 mg/kg N=3) | Any TEAEs with Outcome of Death (0.5 mg/kg N=3) | Drug Related SAE (0.5 mg/kg N=3) | SAE leading to Drug discontinuation (0.5 mg/kg N=3) | Any DLTs (0.5 mg/kg N=3) | Any TEAEs leading to Study Drug Dose Reduction or Interruption (1 mg/kg N=4) | Drug Related SAE (1 mg/kg N=4) | SAE leading to Drug discontinuation (1 mg/kg N=4) | Any DLTs (1 mg/kg N=4) | >=G3 adverse events (1.5 mg/kg N=5) | Any TEAEs Leading to Study Drug Discontinuation (1.5 mg/kg N=5) | Any TEAEs leading to Study Drug Dose Reduction or Interruption (1.5 mg/kg N=5) | Any TEAEs with Outcome of Death (1.5 mg/kg N=5) | Drug Related SAE (1.5 mg/kg N=5) | SAE leading to Drug discontinuation (1.5 mg/kg N=5) | Any DLTs (1.5 mg/kg N=5) | Any TEAEs leading to Study Drug Dose Reduction or Interruption (3 mg/kg N=12) | Drug Related SAE (3 mg/kg N=12) | SAE leading to Drug discontinuation (3 mg/kg N=12) | Any DLTs (3 mg/kg N=12) | Any TEAEs leading to Study Drug Dose Reduction or Interruption (5 mg/kg N=7) | Any TEAEs with Outcome of Death (5 mg/kg N=7) | Any TEAEs leading to Study Drug Dose Reduction or Interruption (10 mg/kg N=5) | Any TEAEs with Outcome of Death (10 mg/kg N=5)
2 (67) n (%): Any Drug Related TEAEs (0.5 mg/kg N=3)
32%: TEAE aspartate aminotransferase increase (China update, 57 patients)
15%: TEAE lymphopenia, regardless of causality (most common TEAEs (≥10%))
4 (57) n (%): Any Drug Related TEAEs (5 mg/kg N=7)
25%: TEAE constipation (China update, 57 patients) | TEAE rash (China update, 57 patients)
0: Lab abnormality Leukocyte ↓, patients [1] | Lab abnormality Neutrophil ↓, patients [1] | Lab abnormality Platelet ↓, patients [1] | TEAE Arthralgia, patients [1] | TEAE Constipation, patients [1] | TEAE Cough, patients [1] | TEAE Dehydration, patients [1] | TEAE Fever, patients [1] | TEAE Hypothyroidism, patients [1] | TEAE Myalgia, patients [1] | TEAE Peripheral edema, patients [1] | TEAE Weight ↓, patients [1] | Lab abnormality Hemoglobin ↓, patients [2] | Lab abnormality Leukocyte ↓, patients [2] | Lab abnormality Neutrophil ↓, patients [2] | Lab abnormality Platelet ↓, patients [2] | TEAE (preferred term not given), patients [3] | TEAE AST increase, patients [3] | TEAE Anemia, patients [3] | TEAE Appetite ↓, patients [3] | TEAE Arthralgia, patients [3] | TEAE Constipation, patients [3] | TEAE Cough, patients [3] | TEAE Dehydration, patients [3] | TEAE Diarrhea, patients [3] | TEAE Dyspnea, patients [3] | TEAE Fever, patients [3] | TEAE Hypothyroidism, patients [3] | TEAE Lymphopenia, patients [3] | TEAE Myalgia, patients [3] | TEAE Peripheral edema, patients [3] | TEAE Respiratory failure, patients [3] | TEAE Tumor pain, patients [3] | TEAE Vomiting, patients [3] | TEAE Weight ↓, patients [3]
5 n (%): Any TEAEs Leading to Study Drug Discontinuation (Overall N=40)
21%: TEAE blood present in urine (China update, 57 patients) | TEAE platelet count increase (China update, 57 patients) | TEAE pruritus (China update, 57 patients) | TEAE white blood cell count increase (China update, 57 patients)
9%: patients discontinued due to adverse events (US update, 35 patients)
57%: albumin decreased, all grade (US update, 35 patients) | lymphocytes decrease, all grades (US update, 35 patients)
there was no≥Grade 4 TEAEs: ≥Grade 4 TEAEs (Table 6 population)
below 500 mg: total dose at which ADG106 was well tolerated (US and China trials)
3 (75) n (%): >=G3 adverse events (1 mg/kg N=4)
